Results reported in the DeepSol protein solubility set.

Test: soluble on expression in E. coli; label from the status in PepcDB or PDB records

Row | Sequence | soluble on expression in E. coli
1 | MGGSHHHHHHGMASALVKSRLNSWFQHRPPGASPERYLGLPGSLKWEDRGPSGQGQGQFLIQQVTLKIPISIEFVFESGSAQAGGNQALPRLAGSLLTQALESHAEGFRERFEKTFQLKEKGLSSGEQVLGQAALSGLLGGIGYFYGQGLVLPDIGVEGSEQKVDPALFPPVPLFTAVPSRSFFPRGFLWDEGFHQLVVQRWDPSLTREALGHWLGLLNADGWIGREQILGDEARARVPPEFLVQRAVHANPPTLLLPVAHMLEVGDPDDLAFLRKALPRLHAWFSWLHQSQAGPLPLSYRWRGRDPALPTLLNPKTLPSGLDDYPRASHPSVTERHLDLRCWVALGARVLTRLAEHLGEAEVAAELGPLAASLEAAESLDELHWAPELGVFADFGNHTKAVQLKPRPPQGLVRVVGRPQPQLQYVDALGYVSLFPLLLRLLDPTSSRLGPLLDILADSRHLWSPFGLRSLAASSSFYGQRNSEHDPPYWRGAVWLNVNYLALGALHHYGHLEGPHQARAAKLHGELRANVVGNVWRQYQATGFLWEQYSDRDGRGMGCRPFHGWTSLVLLAMAEDY | not soluble
2 | MGHHHHHHENLYFQSHLYFQSHMDVAPLNLGMIAAYYYINYTTIELFSMSLNAKTKVRGLIEIISNAAEYENIPIRHHEDNLLRQLAQKVPHKLNNPKFNDPHVKTNLLLQAHLSRMQLSAELQSDTEEILSKAIRLIQACVDVLSSNGWLSPALAAMELAQMVTQAMWSKDSYLKQLPHFTSEHIKRCTDKGVESVFDIMEMEDEERNALLQLTDSQIADVARFCNRYPNIELSYEVVDKDSIRSGGPVVVLVQLEREEEVTGPVIAPLFPQKREEGWWVVIGDAKSNSLISIKRLTLQQKAKVKLDFVAPATGAHNYTLYFMSDAYMGCDQEYKFSVDVKEAETDSDSD | soluble
3 | MGHHHHHHENLYFQSHLYFQSHMYHDRRRTGFRQYETYMKQKQSADWQLDELLEELEALETQLNSSNGGDQLLLGVSGIPASSSRENVKSISTLPPPPPALSYHQTPQQPQLLHHHNNHLGYQNGIHQITSINSAASSCSSPDGDSAFGDSSSTESSNNRCRNSAFSSNDSCRDSLNTPSPTQVSPRNGELNAEEAKAQKIRQALEKMKEAKVTKIFVKFFVEDGEALQLLIDERWTVADTLKQLAEKNHIALMEDHCIVEEYPELYIKRVYEDHEKVVENIQMWVQDSPNKLYFMRRPDKYAFISRPELYLLTPKTSDHMEIPSGDQWTIDVKQKFVSEYFHREPVVPPEMEGFLYLKSDGRKSWKKHYFVLRPSGLYYAPKSKKPTTKDLTCLMNLHSNQVYTGIGWEKKYKSPTPWCISIKLTALQMKRSQFIKYICAEDEMTFKKWLVALRIAKNGAELLENYERACQIRRETLGPASSMSAASSSTAISEVPHSLSHHQRTPSVASSIQLSSHMMNNPTHPLSVNVRNQSPASFSVNSCQQSHPSRTSAKLEIQYDEQPTGTIKRAPLDVLRRVSRASTSSPTIPQEESDSDEEFPAPPPVASVMRMPPPVTPPKPCTPLTSKKAPPPPPKRSDTTKLQSASPMAPAKNDLEAALARRREKMATMEC | not soluble
4 | MGHHHHHHGGHMSLITVMNRIGVKPEFAAQFEESFRNRAGLVDGMPGFIRNEVLKPTKPGDPYIVLTYWQDEPSFRAWTESDEFKQGHARSGSLPHDAFTGRPVLEVHDVLLSSDNEGGS | soluble
5 | MGHHHHHHHHHHSSGHIEGRHMIRLGYPCENLTLGATTNRTLRLAHLTEERVREKAAENLRDLERILRFNADHGFALFRIGQHLIPFASHPLFPYDWEGAYEEELARLGALARAFGQRLSMHPGQYVNPGSPDPEVVERSLAELRYSARLLSLIGAEDGVLVLHLGGAYGEKGKALRRFVENLRGEEEVLRYLALENDERLWNVEEVLKAAEALGVPVVVDTLHHALNPGRLPLEEALRLAFPTWRGRPRVHLASQDPKKRPGAHAFRVTREDWERLLSALPGPADVMVEAKGKEQGLATP | soluble
6 | MGHHHHHHMPVVDSDGDAVQLNLGGNYPLYTIQSAAIGFRGGLSTLRKDACKSYVYEAPETDRGLPVGFSASATSQPVMQLGSRYKFSFSMPVPLICDTAWSIGKSETNGGISFQPITAGDYFYLNNFSWFEARSTEETGVYKLAACSCEFCKIACPEVGSFNVNGRTLLGIGGEHFTVQFQKFD | soluble
7 | MGHHHHHHSHALKAGKTASGAGEVVRCLSEQSVAISRCAGGAGARLPALLDEQQVNVLLYDMNGCYSRLKELVPTLPQNRKVSKVEILQHVIDYIRDLQLELNSESEVGTPGGRGLPVRAPLSTLNGEISALTAEAACVPADDRILCR | not soluble
8 | MGHHHHHHSHDDVIDKTLNYTRRKSNDIVYIGSLSKDKGVDILLELVKTFTKNGNDTIIHIVGKGLLYEKIFERIGEINKRVIYYGPQPLKRALQIASRASLGVVLTRPSYESLTTDPMKPKVYLAAHTPVILPEYFEISSYVNRFKAGMVVGKLKPSYILSKVKVALEDSNTLLKGAERLAKS | not soluble
9 | MGHHHHHHSHGRLTLSAQHISHRPCLLSYSLLFWKVHHLFLEGFPCSPRLDEMSFHQFPQHPVHVSVVHLPIVYKGSMTQVSPH | not soluble
10 | MGHHHHHHSHGTRSKLSRHGSGADSDYENTQSGDPLLGLEGKRFLELGKEEDFHPELESLDGDLDPGLPSTEDVILKTEQVTKNIQELLRAAQEFKHDSFVPCSEKIHLAVTEMASLFPKRPALEPVRSSLRLLNASAYRLQSECRKTVPPEPGAPVDFQLLTQQVIQCAYDIAKAAKQLVTITTREKKQ | soluble
11 | MGHHHHHHSHKPDEDDANRLGEKVILREQVKELFNEKYGEALGLNRPVLVPYKLIRDSPDAVEVTGLPDDIPFRNPNTYDIHRLEKILKAREHVRMVIINQLQPFAEICNDAKVPAKDSSIPKRKRKRVSEGNSVSSSSSSSSSSSSNPDSVASANQISLVQWPMYMVDYAGLNVQLPGPLNY | not soluble
12 | MGHHHHHHSHLKDNRVVTMEVEARNLDKKDFLGKSDPFLEFFRQGDGKWHLVYRSEVIKNNLNPTWKRFSVPVQHFCGGNPSTPIQVQCSDYDSDGSHDLIGTFHTSLAQLQAVP | not soluble
13 | MGHHHHHHSHLPGNTRKMDKTTVLEKVIGFLQKHNEVSAQTEICDIQQDWKPSFLSNEEFTQLMLEALDGFIIAVTTDGSIIYVSDSITPLLGHLPSDVMDQNLLNFLPEQEHSEVYKILSSHMLVTDSPSP | soluble
14 | MGHHHHHHSHMAIQVDKFNFESFPESPGEKGQFANPKQLEEERREARGLEIHSKLGICWRIPSLKRSGEASVEGLLNQLVLEHLQLAPLQWDVLVDGQPCDREAVAACQVGDPVRLEVRLTNRSPRSVGPFALTVVPFQDHQNGVHNYDLHDTVSFVGSSTFYLDAVQPSGQSACLGALLFLYTGDFFLHIRFHEDSTSKELPPSWFCLPSVHVCALEAQA | not soluble
15 | MGHHHHHHSHMANSAGSMANSAGSPGSLFRFAVPPALGSNLTDNVMITVDIIPSGWNSADGKSDKTKSAPSRDPERLQKIKESLLLEDSEEEEGDLCRICQMAAASSSNLLIEPCKCTGSLQYVHQDCMKKWLQAKINSGSSLEAVTTCELCKEKLELNLEDFDIHELHRAHANEQAEYEFISSGLYLVVLLHLCEQSFSDMMGNTNEPSTRVRFINLARTLQAHMEDLETSEDDSEEDGDHNRTFDIA | soluble
16 | MGHHHHHHSHMANSMANSMNNRTRLALIICNTEFDHLPPRNGADFDITGMKELLEGLDYSVDVEENLTARDMESALRAFATRPEHKSSDSTFLVLMSHGILEGICGTVHDEKKPDVLLYDTIFQIFNNRNCLSLKDKPKVIIVQACRGANRGELWVRDSPASLEVASSQSSENLEEDAVYKTHVEKDFIAFCSSTPHNVSWRDSTMGSIFITQLITCFQKYSWCCHLEEVFRKVQQSFETPRAKAQMPTIERLSMTRYFYLFPGN | not soluble
17 | MGHHHHHHSHMASGFIEIANKQGLTATLLPFGATLAKLTFPDKNGKNQDLVLGFDTIDEFEKDAASIGKTVGRVANRIKNSTLHFDGKQYTMTPNNGPHYLHGGPNGLGYRKWEVVRHAPESVSFSVRANEQDDGLPGDAKIDVTYTVNDRNQLIIEHHATCDTPGLLALTNHAYWNLDGSDTVAEHFLEMEADEFVEVDDTFCPTGAIRSVTDTGFDFRSGKQLKESGKDAEELLDLDNDLVITKKTPPSTPSTYLRFWSEKSGIELSITTSYPVIHLYASKFLDCKGKKGEHYKANKALAIEPQFHSAAPNFDHFPDVSLRPGDHYCQEIVYTFSHVN | soluble
18 | MGHHHHHHSHMCNGSFTEKLKLLFKLHIPPAYTEVKSKDASKGDELSKEELLYFSQLHVSKPANEKEAESAKHSPEKGKGKIDIQAYLSQWQDELFKKEENIKDLPRMNQSQFIQFSKTLYNLFHEDPEEESLYQAIAVVTSLLLRMEEVGRKLHSPTSSAKGFSGTVCGSGGPSEEKTGSHLEKDPCSFREEPQWSFAFEQILASLLNEPALVRFFEKPIDVKAKLENARISQLRSRTKM | soluble
19 | MGHHHHHHSHMDPEVTLLLQCPGGGLPQEQIQAELSPAHDRRPLPGGDEAITAIWETRLKAQPWLFDAPKFRLHSATLAPIGSRGPQLLLRLGLTSYRDFLGTNWSSSAAWLRQQGATDWGDTQAYLADPLGVGAALATADDFLVFLRRSRQVAEAPGLVDVPGGHPEPQALCPGGSPQHQDLAGQLVVHELFSSVLQEICDEVNLPLLTLSQPLLLGIARNETSAGRASAEFYVQCSLTSEQVRKHYLSGGPEAHESTGIFFVETQNVRRLPETEMWAELCPSAKGAIILYNRVQGSPTGAALGSPALLPPL | not soluble
20 | MGHHHHHHSHMDVPYLINCLVFLFCFSKSNEHSSEYPFVRDLSLEGRLLAKNICTFNIHIHIYTHFFLRQRFTLSPRLKCSGMIIVHCSLYLLGSSNPPT | not soluble
21 | MGHHHHHHSHMEHPLEMPICAFQLPDLTVYNEDFRSFIERDLIEQSMLVALEQAGRLNWWVSVDPTSQRLLPLATTGDGNCLLHAASLGMWGFHDRDLMLRKALYALMEKGVEKEALKRRWRWQQTQQNKESGLVYTEDEWQKEWNELIKLASSEPRMHLGTNGANCGGVESSEEPVYESLEEFHVFVLAHVLRRPIVVVADTMLRDSGGEAFAPIPFGGIYLPLEVPASQCHRSPLVLAYDQAHFSALVSMEQKENTKEQAVIPLTDSEYKLLPLHFAVDPGKGWEWGKDDSDNVRLASVILSLEVKLHLLHSYMNVKWIPLSS | soluble
22 | MGHHHHHHSHMEKCSVGGLELTEQTPALLGNMAMATSLMDIGDSFGHPACPLVSRSRNSPVEDDDDDDDVVFIESIQPPSISAPAIADQRNFIFASSKNEKPQGNYSVIPPSSRDLASQKGNISETIVIDDEEDIETNGGAEKKSSCFIEWGLPGTKNKTNDLDFSTSSLSRSKVNAGMGNSGITTELTLKYIITNVTTLETGISSVNAGQDVNIIITYKTSL | not soluble
23 | MGHHHHHHSHMIVNVIGAGLAGSEVAYNLGKRGIRVRLFEMRPKKMTEVHKTGYFAELVCSNSLKSEDITNAEGLLKAEMRLMGSITLEAAEKARVPSGKALAVDRNIFAKEVTEVIERLESVEIIREEVTEFDPEEGIWVVATGPATSDGLLPFLKKLLGDDLLFFFDAVSPIVTFESIDMECAFWGDRFGKGKDYINCPLTKEEYEEFWKALVEAEVIEMEDFDRKLLFERCQPIEEIARSGKDALRYGPLRPTGLVDPRTGKEPYAVVQLRREDKEGRFYSLVGFQTRLKWSEQKRVLRKIPCLRNAEIVRYGVMHRNVYINSPKLLDIFFRLKKHPNIFFAGQITGVEGYMESAASGIYVAYNVHRILKGLSPLKLPEETMMGALFSYIIEKVEGDLKPMYANFGLLPPLKVRVKDKFEKRKKLAERAIETMKKFLEENPW | soluble
24 | MGHHHHHHSHMKAEGKKPISKIPKKGFVEVTELTDVTYTSNLVRLRPGHMNVVLILSNSTKTSLLQKFALEVYTFTGSSCLHFSFLSLDKHREWLEYLLEFAQDAAPIPNQYDKHFMERDYTGYVLALNGHKKYFCLFKPQKTVEEEEAIGSCSDVDSSLYLGESRGKPSCGLGSRPIKGKLSKLSLWMERLLEGSLQRFYIPSWPELD | not soluble
